Drawing on PMC9214244, “Multivalent Interaction of Beta-Catenin With its Intrinsically Disordered Binding Partner Adenomatous Polyposis Coli” (Frontiers in Molecular Biosciences, 2022), this text covers fold increase in affinity (IC50) against APCbc, Kd and kon for six molecules.

Assay [1] has as its target armadillo (ARM) repeat domain of human β-catenin (residues 134–671) (human) (UniProt P35222). The assay can be described thus: other fluorescence titration; competition: 20 nM Alexa-488-APCbc and 200 nM β-catenin incubated 30 min, then unlabelled APCbc variants titrated; PBS, 1 mM DTT; 25°C.
The target of assay [2] is T1, armadillo (ARM) repeat domain of human β-catenin (residues 134–671) (human, UniProt P35222 134-671).
T1 construct: two residues left at the N-terminus after thrombin cleavage of GST; β-catenin, human, armadillo repeat domain, residues 134-671; plasmid a gift from W. I. Weis; source: E. coli C41, purified (glutathione-Sepharose, thrombin cleavage on the resin, Mono-Q); not shown: GST, N-terminal, cleaved
T1 sequence: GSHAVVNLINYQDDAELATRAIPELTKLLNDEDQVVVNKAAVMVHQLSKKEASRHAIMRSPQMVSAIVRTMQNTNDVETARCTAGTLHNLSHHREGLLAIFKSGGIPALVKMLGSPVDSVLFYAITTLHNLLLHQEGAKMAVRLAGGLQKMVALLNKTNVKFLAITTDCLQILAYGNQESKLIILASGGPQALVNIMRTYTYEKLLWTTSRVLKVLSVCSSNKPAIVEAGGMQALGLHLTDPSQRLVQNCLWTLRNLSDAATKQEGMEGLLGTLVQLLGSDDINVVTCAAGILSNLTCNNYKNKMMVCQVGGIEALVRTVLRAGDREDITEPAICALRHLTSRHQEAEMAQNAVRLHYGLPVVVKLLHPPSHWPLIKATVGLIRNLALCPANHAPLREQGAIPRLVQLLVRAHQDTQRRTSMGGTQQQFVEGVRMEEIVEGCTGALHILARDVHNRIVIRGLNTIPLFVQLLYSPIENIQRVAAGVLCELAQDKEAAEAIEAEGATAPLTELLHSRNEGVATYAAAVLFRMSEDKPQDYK
Put plainly: fluorescence polarisation; fluorescence anisotropy; β-catenin titrated into 10 nM fluorescein-labelled APC construct; PBS, 1 mM DTT; 15°C; adjusted anisotropy fitted to a Hill equation. As to conditions: both partners purified. Background: In fluorescence polarisation assays a small probe gives low polarisation when free and higher when bound to something large.

The target of assay [3] is T1, armadillo (ARM) repeat domain of human …. Described as above. The settings on record: both partners purified. The source holds these as a separate data set.
Assay [4] shares this target. The assay can be described thus: stopped-flow fluorescence; association: 25 nM fluorescein-labelled APC mixed 1:1 by volume with 250-2,000 nM β-catenin (pseudo first-order); dissociation: pre-formed 1:1 complex (200 nM) mixed with 10 times molar excess of the same APC construct; PBS, 1 mM DTT; 15°C. The settings on record: both partners purified.

Where no end group is shown, it is not given here. Bounds are passed on as bounds.

One may read the Kd as the free concentration of one partner at which half of the binding sites on the other are occupied at equilibrium, for simple one-to-one binding. A lower Kd goes with tighter binding. As usually defined, the kon is the rate constant with which the complex forms.

As for “APCbc S1505E (S2), unlabelled (from UniProt P25054 1483-1533) (domain or fragment)”, the fold increase in affinity (IC50) against APCbc in assay [1] turned out to be 5 fold.
As for “APCbc S1507E (S3), unlabelled (from UniProt P25054 1483-1533) (domain or fragment)”, the fold increase in affinity (IC50) against APCbc in assay [1] was 30 fold.

B1: APC R3 construct with E1494T (domain or fragment)
chain: SGPKQAAVNAAVQRVQVLPDADTLLHFATTSTPDGFSC(fluorescein‑maleimide)SSSLSALSLDEPFIQKDVELRIMPPVQEND
modifications: not fully specified
B1: the Kd in assay [2] is > 5000 nM.

B2: APCb, lysine-binding domain b of APC R3, fluorescein-labelled at Cys 1501 (domain or fragment)
chain: GSPDADTLLHFATESTPDGFSC(fluorescein‑maleimide)
notes: two residues left at the N-terminus after thrombin cleavage of GST; adenomatous polyposis coli (APC), R3 region, subdomain b, residues 1483-1502; source: E. coli C41, purified (glutathione-Sepharose, thrombin cleavage on the resin, differential filtration); not shown: GST, N-terminal, cleaved
In turn, B2 displayed a Kd in assay [3] of 246 nM.

B3: APCab, APC R3 subdomains a and b, fluorescein-labelled at Cys 1501 (domain or fragment)
chain: GSSGPKQAAVNAAVQRVQVLPDADTLLHFATESTPDGFSC(fluorescein‑maleimide)
notes: two residues left at the N-terminus after thrombin cleavage of GST; adenomatous polyposis coli (APC), R3 region, subdomains a (1465-1483) and b (1483-1502); source: E. coli C41, purified (glutathione-Sepharose, thrombin cleavage on the resin, differential filtration); not shown: GST, N-terminal, cleaved
B3 came in with a kon in assay [4] of 1.33e+07 M⁻¹ s⁻¹. For the same molecule, the affinity in assay [3], expressed as Kd, was 89.9 nM.

B4: APCabc D1486S, fluorescein-labelled at Cys 1501 (domain or fragment)
chain: SGPKQAAVNAAVQRVQVLPDASTLLHFATESTPDGFSC(fluorescein‑maleimide)SSSLSALSLDEPFIQKDVELRIMPPVQEND
Regarding B4, the Kd in assay [3] was determined as 2050 nM.
